Test results from patent US20150031748A1 (AGENCY FOR SCIENCE TECHNOLOGY AND RESEARCH, published 2015).

Key:
[1] = biological target: T1, HA-Slug (full length mouse Slug in pDHA, two HA tags) (Mus musculus, UniProt P97469 1-269, 35S-methionine labelled in Example 5); assay: GST pull-down of 35S-labeled in vitro translated protein, autoradiography
T1 construct: also called pDHA-Slug; HA tagged Slug; not shown: the two HA tags of the pDHA vector and any vector linker
T1 sequence: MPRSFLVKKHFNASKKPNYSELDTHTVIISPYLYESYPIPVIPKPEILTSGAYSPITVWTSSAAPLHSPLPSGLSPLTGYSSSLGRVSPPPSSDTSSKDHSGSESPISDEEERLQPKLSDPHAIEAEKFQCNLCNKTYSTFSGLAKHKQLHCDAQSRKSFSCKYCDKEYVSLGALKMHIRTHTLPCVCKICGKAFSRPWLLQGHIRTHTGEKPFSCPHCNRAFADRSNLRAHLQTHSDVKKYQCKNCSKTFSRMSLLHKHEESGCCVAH
Protocol: In vitro translation was carried out using Quick Coupled T7 TNT System (Promega, Madson, Wis.) according to the manufacturers protocol. Slug, EX and ZNF cloned into the pDHA vector were in vitro translated and labeled with 35S Methionine. GST, GST-ZO-2 SGA, GST-ZO-2 SH3, GST-20-2 GA, GST-ZO-2 AP and GST-ZO-2 P were produced, purified as described above and were bound to glutathione Sepharose-4B (Amersham Biosciences, Piscataway, N.J., USA) following standard protocols.
Purified GST-fusion proteins were quantified by SDS-PAGE by comparing with known amounts of BSA as standards. 20 μl bed volume of beads carrying 20 μg of GST or the above GST fused ZO-2 truncated proteins were incubated with 10 μl of in vitro translated 35S Methionine labeled, HA tagged Slug, EX or ZNF and topped up with 200 μl of buffer B (PBS with 1% TX-100 PBS, 1 mM EDTA, Complete EDTA free protease inhibitor cocktail (Roche Diagnostics, Indianapolis, Ind.), 1 mM dithiothreitol (DTT), 300 μg/ml Benzamiidine) for 3 h at 4° C. The beads were washed three times with 500 μl of buffer B each time. This was followed by suspension in 30 μl of SDS sample buffer and the analysis of the bound proteins by running through a 15% SDS-PAGE gel and autoradiography, with a 2 to 3 day exposure period. To reciprocate the binding, GST, GST-Slug and GST-ZNF were used as baits. […]

[2] = biological target: T2, GST-ZO-2SGA (canine ZO-2 amino acids 575-947 in pGEX-6P-1) (Canis lupus familiaris, UniProt Q95168 575-947); assay: GST binding assay with GFP-Slug MDCK lysate, anti-Slug blot
T2 construct: also called GST-ZO2 SGA WT
T2 sequence: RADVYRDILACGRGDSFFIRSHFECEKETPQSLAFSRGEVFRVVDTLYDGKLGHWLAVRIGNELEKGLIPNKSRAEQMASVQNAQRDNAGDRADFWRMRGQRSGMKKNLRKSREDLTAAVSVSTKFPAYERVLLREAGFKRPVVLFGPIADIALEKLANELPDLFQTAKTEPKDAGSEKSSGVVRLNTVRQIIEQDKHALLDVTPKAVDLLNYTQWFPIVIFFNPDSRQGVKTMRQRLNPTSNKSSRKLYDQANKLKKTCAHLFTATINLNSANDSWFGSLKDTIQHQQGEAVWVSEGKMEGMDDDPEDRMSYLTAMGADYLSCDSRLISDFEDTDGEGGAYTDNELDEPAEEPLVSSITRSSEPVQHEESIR

[3] = biological target: T3, human ZO-1 SGA domain (amino acids 490-883) in bait vector pGBKT7 (human, UniProt P04386 1-147; Q07157 490-883); assay: yeast two-hybrid, QDO growth and beta-galactosidase activity
T3 construct: Yeast two-hybrid bait
Description: (§1) All experimental details were according to the manufacturer's protocols. Clones were screened at high stringency with a quadruple (-Trp, -Leu, -His, -Ade) dropout media and then tested for α- and β-galactosidase activity. Library plasmids with the cDNA inserts from positive clones were isolated and sequenced, resulting in the identification of the entire Slug cDNA. The interaction was retested by transforming this Slug cDNA plasmid with bait vectors carrying the human ZO-1 SGA domain (amino acids 490-883), the canine ZO-2 SGA (amino acids 575-945), SH3 (amino acids 575-713), as well as the GA domain (amino acids 714-945) or the canine ZO-3 […] domain (amino acids 450-899). Empty pGBKT7 and a bait plasmid with […] cDNA (Clontech) were used as negative controls.
(§2) The interaction was retested by transforming this Slug cDNA plasmid with bait vectors carrying the human ZO-1SGA domain (amino acids 490-883), the canine ZO-2SGA (amino acids 575-945), SH3 (amino acids 575-713), GA domain (amino acids 714-945), as well as the canine ZO-3SGA domain (amino acids 450-899). Interactions were determined by monitoring the growth of the co-transformed yeasts in on selective media & β-galactosidase activity. […]

[4] = biological target: T4, canine ZO-3 SGA domain (amino acids 450-899) in bait vector pGBKT7 (canine, UniProt P04386 1-147; O62683 450-898); assay: as above
T4 construct: Yeast two-hybrid bait; also called canine ZO-3 SGC domain
Description: as §1, §2

[5] = biological target: T5, MYC tagged GA domain of canine ZO-3 (amino acids 606-899), in vitro translated (canine, UniProt O62683 606-898); assay: GST pull-down of in vitro translated MYC-tagged GA domain, anti-myc blot
T5 construct: range 606-899; also called MYC-ZO-3GA; ZO-3GA; not shown: MYC tag from pGBKT7
T5 sequence (looked up): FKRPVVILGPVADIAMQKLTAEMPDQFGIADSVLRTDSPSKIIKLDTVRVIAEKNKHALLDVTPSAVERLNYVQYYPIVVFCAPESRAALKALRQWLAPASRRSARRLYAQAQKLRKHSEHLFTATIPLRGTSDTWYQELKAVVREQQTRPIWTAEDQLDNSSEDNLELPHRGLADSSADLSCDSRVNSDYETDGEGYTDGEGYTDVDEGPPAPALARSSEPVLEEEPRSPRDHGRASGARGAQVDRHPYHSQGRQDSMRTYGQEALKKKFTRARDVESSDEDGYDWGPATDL

B1: GST-ZO-2P (proline rich domain, canine ZO-2 amino acids 948-1174 in pGEX-6P-1) (other)
chain: KPSPEPRAQMRRAASRDQLRDSSPPPAFKPEPPKAKTQNREESFDISRSHDYKSNPSAVAGNEVSGASTRSCPPPIAAKPSFGRSILKPSTPVPSPESEEVGEGSEEQEGAPKSVLGKVKIFEKMDHKARLQRMQELQEAQNARIEIAQKHPDIYAVPIKTHKPDPGLSQHTSSRPPEPQKGPSRLYQDPRGSYGSDAEEEEYRQQLSEHSKRGYYSQPSRYRDTEL
notes: also called the P; not shown: GST of pGEX-6P-1 and its linker (PreScission site, cloning-site residues)
binding result [1]: no binding

B2: GFP-Slug (full length mouse Slug in pEGFP, stably expressed in MDCK cells) (other)
chain: MPRSFLVKKHFNASKKPNYSELDTHTVIISPYLYESYPIPVIPKPEILTSGAYSPITVWTSSAAPLHSPLPSGLSPLTGYSSSLGRVSPPPSSDTSSKDHSGSESPISDEEERLQPKLSDPHAIEAEKFQCNLCNKTYSTFSGLAKHKQLHCDAQSRKSFSCKYCDKEYVSLGALKMHIRTHTLPCVCKICGKAFSRPWLLQGHIRTHTGEKPFSCPHCNRAFADRSNLRAHLQTHSDVKKYQCKNCSKTFSRMSLLHKHEESGCCVAH
notes: not shown: EGFP of the pEGFP vector and its linker to Slug
binding result [2]: binds

B3: full-length mouse Slug fused to the GAL4 transactivator domain (library clone 30A) (other, not shown: small tags and cut ends)
chain: MPRSFLVKKHFNASKKPNYSELDTHTVIISPYLYESYPIPVIPKPEILTSGAYSPITVWTSSAAPLHSPLPSGLSPLTGYSSSLGRVSPPPSSDTSSKDHSGSESPISDEEERLQPKLSDPHAIEAEKFQCNLCNKTYSTFSGLAKHKQLHCDAQSRKSFSCKYCDKEYVSLGALKMHIRTHTLPCVCKICGKAFSRPWLLQGHIRTHTGEKPFSCPHCNRAFADRSNLRAHLQTHSDVKKYQCKNCSKTFSRMSLLHKHEESGCCVAH
notes: Yeast two-hybrid prey, full length; also called pGADT7-Slug
binding result [3]: no binding
binding result [4]: no binding

B4: GST-Slug (full length mouse Slug in pGEX4T-1) (other)
chain: MPRSFLVKKHFNASKKPNYSELDTHTVIISPYLYESYPIPVIPKPEILTSGAYSPITVWTSSAAPLHSPLPSGLSPLTGYSSSLGRVSPPPSSDTSSKDHSGSESPISDEEERLQPKLSDPHAIEAEKFQCNLCNKTYSTFSGLAKHKQLHCDAQSRKSFSCKYCDKEYVSLGALKMHIRTHTLPCVCKICGKAFSRPWLLQGHIRTHTGEKPFSCPHCNRAFADRSNLRAHLQTHSDVKKYQCKNCSKTFSRMSLLHKHEESGCCVAH
notes: Full length Slug; not shown: GST and the protease-site linker encoded by pGEX4T-1
binding result [5]: no binding
